Experimental findings from paper PMC7279889, “FMRP promotes RNA localization to neuronal projections through interactions between its RGG domain and G-quadruplex RNA sequences” are described below.

Data set [1] deals with FMRP RGG domain (Mus musculus, UniProt P35922 478-614). Kind of data set: fluorescence polarization; 150 mM KCl; FP: 10 mM Tris-HCl (pH not stated), 150 mM KCl or LiCl, 5% glycerol, 10 nM RNA, protein 2 nM-1 uM, 5 min at 25 C, read at 26-27 C. To be noted: protein: recombinant; tags: GST-SBP (N-terminal, pGEX6); label: 3' 6-FAM; G4 intramolecular (folded in KCl).
Data set [2] addresses FMRP KH domains (two KH domains) (Mus musculus, UniProt P35922 222-315). Kind of data set: fluorescence polarization; binding never detected; method and salt implied; FP: 10 mM Tris-HCl (pH not stated), 150 mM KCl or LiCl, 5% glycerol, 10 nM RNA, protein 2 nM-1 uM, 5 min at 25 C, read at 26-27 C. To be noted: protein: recombinant; tags: GST-SBP (N-terminal, pGEX6); label: 3' 6-FAM; G4 intramolecular (folded in KCl).

Regarding GGGAGGGAGGGAGGGUA (structured_RNA) [rG4], the Kd in data set [1] was approximately 30 nM. Further, the binding result in data set [2] is reported as “no binding”.
